# Assay results reported in patent US20130225503A1, “TEX14 PEPTIDES AS NOVEL ANTITUMOR AGENTS” (Baylor Licnensing Group, priority 2009, published 2013).
# Entries after “also recorded” stand apart in the source; their conditions may differ.
# How the values were obtained:
# Format in all cases: cell-based
# [1] = target: T1, hinge region of human CEP55 (Homo sapiens, UniProt Q53EZ4); experiment: Modified mammalian two-hybrid assay in HEK293T cells, TEX14 fragment binding to CEP55; settings: transfected HEK293T cells; FIG. 5C, 5E, 5F, FIG. 7
# T1 construct: expressed in transfected cells; host or cells: HEK293T
# T1 sequence (Q53EZ4 157-236 limits assumed): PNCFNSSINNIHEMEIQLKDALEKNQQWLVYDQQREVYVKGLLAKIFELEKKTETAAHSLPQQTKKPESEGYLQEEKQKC
# Text: (§1) A modified form of the CheckMate/Flexi vector mammalian two-hybrid system (Promega) was used to study the interactions of proteins in mammalian cells. A pGL4Cherry (mCherry/GAL4UAS/Hygro) vector was engineered from the pGL4.31 (luc2P/GAL4UAS/Hygro) vector by replacing the Luc2P firefly luciferase reporter sequence with the mCherry sequence. The pACT vector expresses a protein of interest, “X,” fused to a transcriptional activation domain (VP16-AD) and the pBIND vector expresses the other protein of interest, “Y,” fused to a DNA-binding domain (GAL4-BD) and Renilla luciferase by separate promoters. […]
# (§2) Sequences encoding the truncated TEX14, CEP55, ALIX, or TSG101 fragments were cloned into the multiple cloning regions of the pACT and pBIND vectors. Some exemplary constructs used are summarized in FIGS. 6A and B. pACT (protein X), pBIND (protein Y), and pGL4Cherry (mCherry/GAL4UAS/Hygro) were transiently cotransfected into HEK293T cells using Fugene 6/HD transfection reagent, and the cells were examined 44 h later for red fluorescence by using an Axiovert 40 CFL microscope (Carl Zeiss). […] The cells were lysed by using Renilla luciferase assay reagent (Promega), and red fluorescence and Renilla luciferase were measured by using a Polar Star Omega microplate reader (BMG LabTech). […]
# [2] = target: T2, ALIX-CEP interaction (Homo sapiens, UniProt Q53EZ4); experiment: Competition assay using the mammalian two-hybrid system, ALIX-CEP55 interaction; settings: pcDNA3 overexpression in HEK293T cells; FIG. 6A, FIG. 7 left
# T2 construct: expressed in transfected cells; host or cells: HEK293T
# T2 sequence (Q53EZ4 157-236 limits assumed): T1 sequence (Q53EZ4 157-236 limits assumed)
# Text: as §1, §2
# [3] = target: T3, TSG-CEP interaction (Homo sapiens, UniProt Q53EZ4); experiment: Competition assay using the mammalian two-hybrid system, TSG101-CEP55 interaction; settings: pcDNA3 overexpression in HEK293T cells; FIG. 6B, FIG. 7 center
# T3 construct: expressed in transfected cells; host or cells: HEK293T
# T3 sequence (Q53EZ4 157-236 limits assumed): T1 sequence (Q53EZ4 157-236 limits assumed)
# Text: as §1, §2
# [4] = tested on: full-length ALIX localization to the midbody; experiment: Cotransfection with YFP full-length ALIX into HeLa cells, ALIX midbody localization and interconnected cells
# Text: The mouse TEX14 open reading frame (ORF) sequence was ligated into the BamHI and SalI sites of the pCMV-tag2 vector (Stratagene), which contains an N-terminal FLAG tag sequence. The mouse CEP55 ORF was cloned from testis cDNA and subcloned into the EcoRI and SalI sites of the pcDNA3 (Invitrogen) vector containing an N-terminal MYC tag sequence. The truncated and mutant TEX14 (TX, AAAX3A) and the full-length ALIX sequences were ligated into the BamHI and NotI or the NotI and XbaI sites, respectively, of the pcDNA3 vectors, while mCherry or YFP sequences were subcloned into the KpnI and BamHI sites. Purified plasmid DNA was obtained by using a QIAprep spin miniprep kit (Qiagen), and all constructs were sequenced for integrity.
# HEK293T or HeLa cells were maintained in Dulbecco's modified Eagle medium (Invitrogen) supplemented with 10% fetal calf serum (SAFC Biosciences), 1% L-glutamine (Invitrogen), and penicillinstreptomycin (Invitrogen) and grown on poly-D-lysine (Sigma)-coated coverslips in culture plates at 37 C° in a humidified 5% CO2 atmosphere. For immunoprecipitation and immunoblot experiments, cells were seeded at 50 to 80% confluence in […] (Corning) and transiently transfected using Fugene 6/HD transfection reagent (Roche) according to the manufacturer's instructions. […]
substance,measurement,setting,value
"TX: GPPX3Y region of human TEX14, the 60 amino acids from 754 to 813 (LRNIEQILDEVEMKQKEQEERMSLWATSREFTNAYKLPLAVGPPSLNYIPPVLQLSGGQK; UniProt Q8IWB6 754-813, looked up, fragment)",binding to CEP55 hinge region (mCherry/Renilla luciferase or mCherry/YFP ratio),[1],strongly binds; also recorded: typically stronger than the ALIX-CEP or TSG-CEP interactions
same,effect of overexpression on ALIX-CEP interaction,[2],suppressed
same,effect of overexpression on TSG-CEP interaction,[3],suppressed
same,full-length ALIX localization to the midbody,[4]; HeLa cells cotransfected with pcDNA-mCherry-truncated TEX14 and pcDNA-YFP full-length ALIX,inhibits full-length ALIX localization to the midbody
same,interconnecting cells (intercellular bridges) in transfected cells,"[4]; HeLa cells, FIG. 6G left",several interconnecting cells were visualized
